Data on one substance can be found in publication PMC4740876.

Test [1] concerns the target unmodified mononucleosome. Kind of test: SEC-MALS; mononucleosomes (300 pmol) with the catalytic domain of hDot1L (8.5 nmol) in 25 mM Tris-HCl, 150 mM NaCl, pH 7.8, 4 °C 30 min; Superdex 200 10/300. On the technique in general: Size exclusion chromatography separates by hydrodynamic size, large species first.
The target in test [2] is mononucleosome containing H2B-Ub (ubiquitin on Lys120 of H2B by a stable isopeptide linkage) (UniProt P62807). Described as above.

For “cysteine-less catalytic domain of hDot1L, hDot1L(1–416)C44S/C74S/C178S (from UniProt Q8TEK3 2-417) (enzyme)”, the stoichiometry N (hDot1L per mononucleosome) is 1 in test [1] and 2 in test [2].
